Key:
[1] = test system: T1, JIP-1 (as added to the in vitro protein kinase assay)
T1 sequence: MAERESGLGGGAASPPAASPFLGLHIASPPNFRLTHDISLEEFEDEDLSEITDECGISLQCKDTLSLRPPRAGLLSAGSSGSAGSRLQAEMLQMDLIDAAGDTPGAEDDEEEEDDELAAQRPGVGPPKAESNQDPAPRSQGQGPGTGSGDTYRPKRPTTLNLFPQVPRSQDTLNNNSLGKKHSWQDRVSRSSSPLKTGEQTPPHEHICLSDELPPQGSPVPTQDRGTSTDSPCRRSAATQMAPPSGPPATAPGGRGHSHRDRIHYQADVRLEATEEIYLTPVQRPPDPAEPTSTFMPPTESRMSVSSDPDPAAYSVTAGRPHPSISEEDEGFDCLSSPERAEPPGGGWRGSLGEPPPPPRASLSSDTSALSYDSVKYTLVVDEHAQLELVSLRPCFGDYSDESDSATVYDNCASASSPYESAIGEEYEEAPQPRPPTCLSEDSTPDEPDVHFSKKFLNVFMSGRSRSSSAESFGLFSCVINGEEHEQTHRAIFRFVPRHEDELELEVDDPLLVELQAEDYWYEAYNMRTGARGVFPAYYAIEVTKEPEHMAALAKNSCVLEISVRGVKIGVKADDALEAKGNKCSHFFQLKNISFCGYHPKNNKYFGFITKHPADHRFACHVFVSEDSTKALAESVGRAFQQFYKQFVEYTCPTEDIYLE

[2] = molecular target: T2, Flag epitope-tagged JNK1 (cell lysate) (human, UniProt P45983-2 1-384, limits assumed); assay: GST pull-down from cell lysate, anti-Flag (M2) immunoblot
T2 construct: written N-terminal here
Method: To test whether JIP-1 binding to JNK is also isoform-dependent, a binding assay was utilized. Cell lysates (1 ml in TLB) containing JNK1, JNK2, or p38 MAP kinase, each tagged with the Flag epitope, were incubated with 5 μg GST-fusion proteins pre-bound to 10 μl glutathione-Sepharose. […] The GST-ATF2 fusion protein contains residues 1-109 of ATF2, and the GST-Jun fusion protein contains residues 1-79 of c-Jun. After incubation for one hour at 4° C. and three washes with TLB, bound proteins were detected by protein immunoblot analysis with the M2 monoclonal antibody, which is specific for the Flag epitope. Dérijard, et al., supra; Sluss et al., supra; Gupta et al., supra. When ATF2 or c-jun GST fusion proteins were used in this assay, binding to JNK1 was greater than binding to JNK2. This finding is consistent with the results of previous studies. […] The level of binding of these fusion proteins to JNK1 was similar to the level of binding to JNK2.

T2 sequence (P45983 other isoform, or with tags, fused parts or gaps limits assumed): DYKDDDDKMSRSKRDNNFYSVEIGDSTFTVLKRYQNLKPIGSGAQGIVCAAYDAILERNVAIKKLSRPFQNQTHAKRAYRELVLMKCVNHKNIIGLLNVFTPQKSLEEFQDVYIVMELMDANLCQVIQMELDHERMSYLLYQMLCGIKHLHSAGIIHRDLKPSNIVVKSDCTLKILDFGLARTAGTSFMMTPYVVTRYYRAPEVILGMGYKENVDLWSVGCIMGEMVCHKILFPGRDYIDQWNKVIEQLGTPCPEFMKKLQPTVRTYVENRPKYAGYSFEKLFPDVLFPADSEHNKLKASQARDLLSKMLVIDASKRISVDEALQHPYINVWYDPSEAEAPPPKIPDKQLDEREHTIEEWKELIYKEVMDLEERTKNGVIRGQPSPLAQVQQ

JNK (immune complex from CHO cells)
phosphorylation of c-Jun (GST-Jun) by JNK, immune complex kinase assay [1]: JIP-1 markedly inhibited the phosphorylation of c-Jun by JNK

ERK2 (immune complex from CHO cells)
phosphorylation of substrate (myelin basic protein) by ERK, immune complex kinase assay [1]: JIP-1 caused no significant change in the phosphorylation of substrates by the related MAP kinases p38 and ERK2

p38 (immune complex from CHO cells)
phosphorylation of substrate (GST-ATF2) by p38, immune complex kinase assay [1]: JIP-1 caused no significant change in the phosphorylation of substrates by the related MAP kinases p38 and ERK2

B1: GST-JIP-1 fusion protein containing residues 164-240 of JIP-1 (other)
chain: PQVPRSQDTLNNNSLGKKHSWQDRVSRSSSPLKTGEQTPPHEHICLSDELPPQGSPVPTQDRGTSTDSPCRRSAATQ
notes: not shown: glutathione-S-transferase (GST) of vector pGEX-3X
binding result [2]: no binding

B2: GST-JIP-1 fusion protein containing residues 203-281 of JIP-1 (other)
chain: PHEHICLSDELPPQGSPVPTQDRGTSTDSPCRRSAATQMAPPSGPPATAPGGRGHSHRDRIHYQADVRLEATEEIYLTP
notes: as for B1
binding result [2]: no binding
